We go through 1 molecule from patent US20230134571A1 (INTERNATIONAL AIDS VACCINE INITIATIVE, published 2023).

Holding throughout (test): cell-based or functional assay
Assay [1] addresses HIV Env, isolate 933.v4.c4 (HIV).
Assay [2] addresses HIV Env, isolate CH0505.w4.3 (HIV).
Assay [3] concerns the target HIV Env, isolate 541-F1_A7_2 (HIV).
The target in assay [4] is HIV Env, isolate CH064.env (HIV).
Assay [5] has as its target HIV Env, isolate 20883229_C9_H6 (HIV).
In assay [6] the target is HIV Env, isolate CAP225.1.06_A2_18 (HIV).
The target in assay [7] is HIV Env, isolate Ce704810053_2B7 (HIV).
Assay [8] has as its target HIV Env, isolate 20104663_E11_D2 (HIV).

B1: ePGDM9 (antibody, V domains shown)
VH: QAQLVQSGPEVRKPGTSVKVSCKNPGNTLTTYDLHWVRQVPGQGLQWMGWISHEGDKKVIVERFKAKVTIDWDRSTNTAYLQLSGLTSEDTAVYYCAKGSKHRLRDYALYDEDGALNWAVDVDYLANLEFWGQGTAVTVSS
VL: DIVLTQSPLSLSVTPGESASISCKSSQSLIHGDRNNYLAWYVQKPGRSPQLLIDLASERASGVPDRFSGSGSRKDFTLKISRVETEDVGTYYCMQGRESPWTFGQGTKVDIK
For the molecule B1, the concentration for half-maximal inhibition (IC50) in assay [1] was over 50 µg/mL; in assay [2], 0.001 µg/mL; in assay [3], 0.005 µg/mL; in assay [4], 0.333 µg/mL; in assay [5], over 50 µg/mL; in assay [6], 0.025 µg/mL. Moreover, the “IC50” value in assay [7] is 0.003 µg/mL; in assay [8], under 0.0006 µg/mL. Moreover, the concentration for an effect of 80% (IC80) in assay [1] was over 50 µg/mL; in assay [2], 0.011 µg/mL; in assay [3], 0.02 µg/mL; in assay [4], 1.62 µg/mL; in assay [5], over 50 µg/mL; in assay [6], 0.167 µg/mL. Besides, the “IC80” value in assay [7] worked out at 0.007 µg/mL; in assay [8], 0.001 µg/mL.

One may read the IC50 as the concentration needed to halve the response being measured. What is called IC80 is the concentration at which the effect reaches the 80% level. Higher therefore signals a need for much substance.
